Results reported in patent publication US20170210813A1 (Regeneron, published 2017).

What was measured:
human PDGFRb.mFc = molecular target: T1, human PDGFRb.mFc (human); assay: SPR, mAb captured, 25 C
T1 construct: Soluble dimeric construct with mouse Fc; also called hPDGFRb.mFc; soluble human PDGFR-beta.mFc
T1 chain: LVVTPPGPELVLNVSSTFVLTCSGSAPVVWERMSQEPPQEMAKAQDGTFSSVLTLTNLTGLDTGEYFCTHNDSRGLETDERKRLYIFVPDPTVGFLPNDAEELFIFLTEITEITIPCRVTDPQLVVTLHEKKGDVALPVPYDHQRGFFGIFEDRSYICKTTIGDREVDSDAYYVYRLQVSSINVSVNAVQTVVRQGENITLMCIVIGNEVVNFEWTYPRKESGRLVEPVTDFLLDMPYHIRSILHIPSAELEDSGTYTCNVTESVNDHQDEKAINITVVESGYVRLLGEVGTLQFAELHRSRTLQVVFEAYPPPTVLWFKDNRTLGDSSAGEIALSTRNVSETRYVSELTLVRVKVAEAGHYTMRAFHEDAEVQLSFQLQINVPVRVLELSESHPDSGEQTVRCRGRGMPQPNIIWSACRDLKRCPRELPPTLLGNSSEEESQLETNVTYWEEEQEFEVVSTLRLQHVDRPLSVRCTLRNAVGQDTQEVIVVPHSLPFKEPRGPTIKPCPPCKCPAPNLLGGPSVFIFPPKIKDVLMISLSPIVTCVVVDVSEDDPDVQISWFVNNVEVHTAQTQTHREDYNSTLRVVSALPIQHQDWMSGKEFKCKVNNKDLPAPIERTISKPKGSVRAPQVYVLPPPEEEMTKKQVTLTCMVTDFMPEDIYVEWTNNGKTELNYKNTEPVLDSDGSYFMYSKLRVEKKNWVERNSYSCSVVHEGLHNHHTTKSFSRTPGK
Protocol: (§1) Antibodies, expressed as either mouse Fc (prefix H1M; H2M) or human Fc (prefix H4H), were captured on their respective anti-Fc sensor surfaces (Mab capture format). […] Kinetic association (kₐ) and dissociation (kd) rate constants were determined by processing and fitting the data to a 1:1 binding model using Scrubber 2.0 curve fitting software.

hPDGFRb.mmh [1] = molecular target: T2, hPDGFRb.mmh (human, UniProt P09619 33-531); assay: SPR, mAb captured, 25 C
T2 construct: Soluble monomeric construct; also called soluble human PDGFR-beta.mmh
Protocol: as §1

[2] = molecular target: T3, Macaca fascicularis PDGFRb.mmh (Macaca fascicularis); assay: SPR, mAb captured, 25 C
T3 construct: Soluble monomeric construct; also called mfPDGFRb.mmh
T3 chain: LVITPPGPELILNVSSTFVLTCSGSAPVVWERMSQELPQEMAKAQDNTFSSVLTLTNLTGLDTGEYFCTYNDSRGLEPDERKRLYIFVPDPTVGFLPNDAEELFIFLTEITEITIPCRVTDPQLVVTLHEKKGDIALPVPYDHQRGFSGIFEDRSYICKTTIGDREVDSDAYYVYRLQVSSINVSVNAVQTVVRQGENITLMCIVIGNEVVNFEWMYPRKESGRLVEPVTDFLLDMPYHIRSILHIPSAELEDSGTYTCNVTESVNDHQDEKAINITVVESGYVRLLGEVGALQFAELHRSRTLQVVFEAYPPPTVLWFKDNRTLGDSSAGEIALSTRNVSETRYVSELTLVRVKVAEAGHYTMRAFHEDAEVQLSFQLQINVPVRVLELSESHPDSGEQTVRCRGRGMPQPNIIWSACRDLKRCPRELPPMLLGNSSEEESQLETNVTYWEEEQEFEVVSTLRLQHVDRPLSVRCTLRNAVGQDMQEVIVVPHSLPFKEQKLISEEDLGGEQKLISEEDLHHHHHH
Protocol: as §1

hPDGFRb.mmh [3] = molecular target: T2, hPDGFRb.mmh; assay: blocking ELISA, biot-hPDGFRb.mmh to coated PDGF-BB
Protocol: The equilibrated PDGFR-beta/antibody solutions were added to ligand-coated plates, allowed to incubate for 1 hr, and washed. Levels of bound biot-hPDGFR-beta.mmh were detected using HRP conjugated streptavidin. Data were analyzed using Prism software and IC₅₀ values were calculated as the amount of antibody required to achieve 50% reduction of hPDGFR-beta-mmh bound to ligand. Maximum blocking values were also calculated and reflect the ability of the antibody to block relative to baseline. The absorbance measured at the constant amount of 250 pM biot-hPDGFR-beta-mmh on the dose curve is defined as 0% blocking and the absorbance with no added PDGFR-beta is defined as 100%. The absorbance of the wells containing the highest antibody concentration determined the maximum blocking percent.

[4] = molecular target: full length human PDGFR-beta on HEK293 cells (human, UniProt P09619 33-1106); assay: cell-based or functional assay
hPDGFRb.mmh [5] = molecular target: T2, hPDGFRb.mmh; assay: SPR, mAb captured, 37 C
Protocol: as §1

human PDGFRb.hFc [6] = molecular target: T4, human PDGFRb.hFc (human); assay: SPR, mAb captured, 25 C
T4 construct: Soluble dimeric construct with human Fc; also called hPDGFRb.hFc
Protocol: as §1

human PDGFRb.hFc [7] = molecular target: T4, human PDGFRb.hFc; assay: SPR, mAb captured, 37 C
Protocol: as §1

[8] = molecular target: T3, Macaca fascicularis PDGFRb.mmh; assay: SPR, mAb captured, 37 C
Protocol: as §1

Binder | Kd (human PDGFRb.mFc) [nM] | koff (human PDGFRb.mFc) [s⁻¹] | kon (human PDGFRb.mFc) [M⁻¹ s⁻¹] | t1/2 (human PDGFRb.mFc) [h] | Kd (hPDGFRb.mmh [1]) [nM] | koff (hPDGFRb.mmh [1]) [s⁻¹] | kon (hPDGFRb.mmh [1]) [M⁻¹ s⁻¹] | t1/2 (hPDGFRb.mmh [1]) [h] | Kd [2] [nM] | koff [2] [s⁻¹] | kon [2] [M⁻¹ s⁻¹] | t1/2 [2] [h] | % Maximum Blocking (hPDGFRb.mmh [3]) [%] | IC50 (hPDGFRb.mmh [3]) [nM] | IC50, blocking PDGF-BB (250 pM) activation, SRE-luciferase [4] [M] | IC50, blocking PDGF-DD (400 pM) activation, SRE-luciferase [4] [M] | Kd (hPDGFRb.mmh [5]) [nM] | koff (hPDGFRb.mmh [5]) [s⁻¹] | kon (hPDGFRb.mmh [5]) [M⁻¹ s⁻¹] | t1/2 (hPDGFRb.mmh [5]) [h] | also measured
H2M3365N (antibody, V domains shown, mouse Fc (H2M prefix; isotype not spelled out)) VH: EVQLVESGGGLVQPGRSLRLSCAASGFTFDDFAMHWVRQVPGKGLEWVSGISWSSGTIGYVGSVKGRFTISRDNAKNSLYLQMNSLRAEDTAMYFCTKDKAAFHDAFDIWGQGTMVTVSS VL: not shown | 0.34 | 8.01e-05 | 236000 | 2.4 | 2.79 | 0.000127 | 45400 | 1.52 | 3.4 | 0.000206 | 60000 | 0.933 | 82 | 0.09 | 7.9e-09 | 1.1e-10 | 4.79 | 0.000551 | 115000 | 0.35 | –
H2M3363N (antibody, V domains shown, mouse Fc (H2M prefix; isotype not spelled out)) VH: QVQVQESGPGLVKPSETLSLTCTVSGDSISSSSYYWGWIRQPPGKGLEWIGSIYYNGISSYNPSLKSRVTISVESSKNQFSLRLASVTAADTALYYCARHRAARRFSEAFDIWGQGTMVTVSS VL: not shown | 0.0386 | 4.03e-06 | 104000 | 47.8 | 46.8 | 0.00333 | 71100 | 0.05 | 1.4 | 6.85e-05 | 50000 | 2.82 | 77 | 4.1 | 7.5e-09 | 1.9e-10 | 17.6 | 0.00503 | 286000 | 0.0333 | –
H1M3305N (antibody, mouse IgG1, V domains shown, human variable domains with mouse constant domains, mouse IgG1 Fc (H1M prefix)) VH: QLQLQESGPGLVKPSETLSLTCIVSGGSISSSSYYWGWIRQPPGKGLEWIGSLYYSGITFYNPSLKSRVTISVDTSKNQFSLTLTSVTAADTAVFYCARHRVMASSPFDHWGQGTLVTVSS VL: not shown | ≤ 0.00617 | ≤ 1e-06 | 162000 | 192 | 0.808 | 2.52e-05 | 31200 | 7.63 | 0.816 | 4.16e-05 | 51000 | 4.63 | 83 | 0.085 | 8.5e-09 | 1.9e-10 | 0.88 | 0.000102 | 116000 | 1.88 | –
H4H3095S (antibody, human IgG4, V domains shown, human IgG4 Fc (H4H prefix)) VH: EVQLVESGGGLVQPGGSLRLSCGASGFTFSSYWMTWVRQAPGKGLEWVGNINQDGSEKYSVDSVKGRFTISRDNAKNSLYLQMNRVRAEDTAVYYCSRDLVPPRQGDNYYYFGMDVWGLGTTVTVSS VL: DIQMTQSPSTLSASVGDRVIITCRASQNINNWLAWYQQQPGKAPKLLIYEASSLESGVPSRFSGSGSGTEFTLTIGSLQPDDFATYYCQHYNSYSRTFGQGTKVDIK | – | – | – | – | 4.78 | 0.00136 | 285000 | 0.133 | 8.5 | 0.00175 | 207000 | 0.117 | 82 | 1.4 | 6.1e-10 | 8.2e-10 | 13.8 | 0.00624 | 452000 | 0.0333 | Kd (human PDGFRb.hFc [6]): 0.72 nM; koff (human PDGFRb.hFc [6]): 0.000232 s⁻¹; kon (human PDGFRb.hFc [6]): 321000 M⁻¹ s⁻¹; t1/2 (human PDGFRb.hFc [6]): 0.833 h; Kd (human PDGFRb.hFc [7]): 1.67 nM; koff (human PDGFRb.hFc [7]): 0.00071 s⁻¹; kon (human PDGFRb.hFc [7]): 425000 M⁻¹ s⁻¹; t1/2 (human PDGFRb.hFc [7]): 0.267 h; Kd [8]: 33.3 nM; koff [8]: 0.00797 s⁻¹; kon [8]: 239000 M⁻¹ s⁻¹; t1/2 [8]: 1.5 min
H1M3299N (antibody, mouse IgG1, V domains shown, mouse IgG1 Fc (H1M prefix)) VH: QVQLVESGGGVVQPGRSLRLSCAASGFTFSSYGLHWVRQAPGKGLEWVALISNVGSNKYYADSVKGRFTISRDNSKNSLFLQMNSLRAEDTAVYYCAKGADYYYYGMDVWGQGTTVTVSS VL: not shown | 6.35 | 0.000165 | 25900 | 1.17 | 43.5 | 0.00092 | 21100 | 0.217 | – | – | – | – | 67 | 7.6 | 5.6e-10 | 4.2e-10 | 68.6 | 0.00217 | 31600 | 0.0833 | binding result [2]: no binding
H1M3361N (antibody, mouse IgG1, V domains shown, mouse IgG1 Fc (H1M prefix)) VH: EVQLVESGGGLVQPGGSLRLSCAASGFTFSSYWMTWVRQAPGKGLEWVANIRQDGSDKYYVDSVKGRFTISRDNAKNSLFLQMNSLRAEDTAVYYCARTNGGTYGYNHYYYGMDVWGQGTTVTVSS VL: DIQMTQSPSSLSASVGDRVTITCRASQGIRNDLGWYQLKPGKAPKRLIFAASSLQSGVPSRFSGSGSGTEFTLTISSLQPEDFATYYCLQHNSYPWTFGQGTKVEIK | ≤ 0.0765 | ≤ 1e-06 | 13100 | 192 | 7.29 | 0.00126 | 173000 | 0.15 | 3.9 | 3.89e-05 | 10000 | 4.95 | 76 | 0.1 | 6.8e-09 | 8.4e-11 | 27.4 | 0.00833 | 304000 | 0.0233 | –
H1M3310N (antibody, mouse IgG1, V domains shown, mouse IgG1 Fc (H1M prefix)) VH: EVQLLESGGDLVQPGGSLRLSCAASGITFSSFAMSWVRQAPGKGLEWVSTVSVSAGITYYADSVKGRFTISRDNSKNTLYLQMNSLRAEDTAIYYCAKSSCTTNSCPAYFDYWGLGTLVTVSS VL: not shown | ≤ 0.0789 | ≤ 1e-06 | 12700 | 192 | ≤ 0.07 | ≤ 1e-06 | 14000 | 192 | ≤ 0.1 | 1e-06 | – | 192 | 88 | 0.12 | 2.3e-08 | 2.8e-10 | 1.83 | 6.46e-05 | 35300 | 2.98 | –
